In the DeepSol protein solubility set:

Test: soluble on expression in E. coli; label from the status in PepcDB or PDB records

Q: For “MAHHHHHHMTERSPALVPAVSLLREELQLLNGVVEGQARSRVYRHHIFFRKASFLRSALRNALPQFARRAADPTDLRTVAGRLLTLTIRCAESATLELSASHIDTVSVALLLLAITSRIGCVLCVVLGRKPETFGKLHFIGSKFGVKYKRSRSEAELAEETIGVATPIRRRTIGGVIEAVIK”, which “soluble on expression in E. coli” value is on record?
A: not soluble

Q: For “MGSDKIHHHHHHMGACENRWTVAKALRFPGDALQTILVAAPRGDLSTFFSIECTKRVHTGRCVTTANALKVQAFHTTDVTEQVRATPGWQQQYRQMSPGYFSGELRCLGLDGVEVYEERLNTRVEQFFRAPSGSLAFCFDRSENSLYLLNEQSRNIWITPENYQEVAVVFDQAFLARHGLDPQRLEGLFMVPLGSGQNALFGSWLSATLTRLGEEGCPLQGQALAEQLLEDCLFILDNASQRLQGVALGRRDEERAIMHRVSEWAADCPEETLNLLELADVAGVSLRQLQQAFKAFTGMPPAHWLRLRRLNGARRDLLRGGGVTVAEVAMRWSFWHLGRFSESYRQLFKEFPSETLKRCRV”, which “soluble on expression in E. coli” value is on record?
A: not soluble

Q: For “MAHHHHHHMEPDDGVASWMELREEGNKAFKSEAYANAVKLYSEAIKLNSKEAALFSNRSAAYIKMKEYQKAVLDAEAAIANDKTFVKGYSRLHNALCHLGRFREATQKLKEALVVLEACGASPEDKKQIQELHRTAEEGQRGFEAGQRLLEERNFLAAERELVKAAQLFPDCAIVGIMLGESQASLYPERVIRSLTALSSAHADDTYYLYVRALASYYSGQSGLNNAQSILRHTIELDPDNRKATELLKKIRAVESQKTEGNAAFKEKRFTAAVNCYKAAIEVDPSNIRMTAVLRGNQAAAKMELKEYSSALLDCDFAIKNGAESAKLYARRSRIHEALENYDDALRDIQRAAEMDPSYNGEAQQMKISAKRAKRKDYYKILGLPQGESDDSSIKRAYKKGCLQWHPDKWAHATEEEKAHAEKMFKEVGEAFSILSDPQKKRLYDSGQLDDASSPGGTSDFPARQADIFQMMNMMFQGGCGEGGMPSGFSFTVDPRSRRQKQTFHYR”, which “soluble on expression in E. coli” value is on record?
A: soluble

Q: With “PVDFNGYWKMLSNENFEEYLRALDVNVALRKIANLLKPDKEIVQDGDHMIIRTLSTFRNYIMDFQVGKEFEEDLTGIDDRKCMTTVSWDGDKLQCVQKGEKEGRGWTQWIEGDELHLEMRAEGVTCKQVFKKVH” as the sequence, how does the “soluble on expression in E. coli” value read?
A: soluble

Q: For “MPLTPLDIHNKEFTRGFRGYDEDEVNEFLDQIIKDYEAVLREKKELFDRVTDLDEKLEHFQNIEETLNKSILVAQESAEEVRRNAQKEAQLIVKEAEKNADRIINDALAKSRKIMLEMEELKKQASVYKMRFKMLIEAQLEMLNTDDWDEVTEDSGDERSEEYAE”, which “soluble on expression in E. coli” value is on record?
A: not soluble

Q: For “MTVPLTTRDRIALIPIAEIHILNPRTRNKKIHHELIENIKTVGLKRPITVSRRVSTQGSFNYDLVCGQGRLEAFLALEATEIPAFVIDSAEEDCLVMSLVENVARRQHRPIDLMNEVGRLKGRGKTDAEIATIIGSTSSWVNMIVNLIERGEEKLLSAVETGLIPLSMATDIARSSESDIQDLLTDAYERGIRGKKITKLRHLLELRAKKDKLVRGNPLGVSQNKKKRLTPTDLRHLFEREAERQRLMVKKAAFTHDRVVFSIQAIKELLAVSDFEKLLSTEHLDSMPKLIQARLSNRGGL”, which “soluble on expression in E. coli” value is on record?
A: not soluble

Q: Which “soluble on expression in E. coli” value does the source give for “MGSDKIHHHHHHMKKVNYAAIDIGSNAVRLLIKCVNEENAPELMSKVQLIRIPLRLGEDAFTMGVISAEKEKKLIRLMKAYKQLMKIYDVVDYRACATSAMRDARNGKDIARQIARKTGIRVDIIDGQEEAHIVYDNHIEQLFASGQNYLYVDVGGGSTEINLISNGELKNSRSYNIGTVRMLSGMVKEEEKEALRTDLIGLAAEYAPTSIIGSGGNINKLFRLADKKDKKASLLPVESLREIYEALQALPAEQRIKQYKLKPDRADVIVPAAEIFLEVAMNVKATGIIVPTIGLSDGIIDSLYTQKMNTPVAPKVQ” here?
A: not soluble

Q: For “MAHHHHHHMKGNKGANIAYPDKYHKVTEFFDREYGDLETCTKLNDCQKLLFYALRQQVEHGPCTSGAPFIWQVRERAKHDAWKQLGAMTKFEAMVHFVTHLEECIGGNVDWGEKLRDLNGMRDQQRVGVENGTGESNANEQTERGVSEAHWDADVQAHLQPSAENIEYLAREVMRLRGELQQVRPNRVVPTPIVVPPRKPIDYVSTKNIVPPARTLATVATRTALLNAQTTNNLVERQPQGWGEWFGL”, which “soluble on expression in E. coli” value is on record?
A: not soluble

Q: For “MLMFDPVPVKQEAMDPVSVSYPSNYMESMKPNKYGVIYSTPLPEKFFQTPEGLSHGIQMEPVDLTVNKRSSPPSAGNSPSSLKFRSSHRRASPGLSMPSSSPPIKKYSPPSPGVQHFGVPLSMPPVMAAALSRHGIRSPGILPVIQPVVVQPVPFMYTSHLQQPLMVSLSEEMENSSSSMQVPVIESYEKPISQKKIKIEPGIEPQRTDYYPEEMSPPLMNSVSPPQALLQE”, which “soluble on expression in E. coli” value is on record?
A: soluble

Q: Which “soluble on expression in E. coli” value does the source give for “MLEFVMREWKKSRKLLGQRLFNKLMKMTFYGHFVAGEDQESIQPLLRHYRAFGVSAILDYGVEEDLSPEEAEHKEMESCTSAAERDGSGTNKRDKQYQAHRAFGDRRNGVISARTYFYANEAKCDSHMETFLRCIEASGRVSDDGFIAIKLTALGRPQFLLQFSEVLAKWRCFFHQMAVEQGQAGLAAMDTKLEVAVLQESVAKLGIASRAEIEDWFTAETLGVSGTMDLLDWSSLIDSRTKLSKHLVVPNAQTGQLEPLLSRFTEEEELQMTRMLQRMDVLAKKATEMGVRLMVDAEQTYFQPAISRLTLEMQRKFNVEKPLIFNTYQCYLKDAYDNVTLDVELARREGWCFGAKLVRGAYLAQERARAAEIGYEDPINPTYEATNAMYHRCLDYVLEELKHNAKAKVMVASHNEDTVRFALRRMEELGLHPADHQVYFGQLLGMCDQISFPLGQAGYPVYKYVPYGPVMEVLPYLSRRALENSSLMKGTHRERQLLWLELLRRLRTGNLFHRPA” here?
A: soluble

Q: Which “soluble on expression in E. coli” value does the source give for “MRGSHHHHHHTDPALRANKVAQYYRELVASLSERLRNGERDIDALVEQARERVIKTGELTRTEVDELTRAVRRDLEEFAMSYEESLKEESDSVFMRVIKESLWQELADITDKTQLEWREVFQDLNHHGVYHSGEVVGLGNLVCEKCHFHLPIYTPEVLTLCPKCGHDQFQRRPFEPGLCGR” here?
A: soluble

Q: For “HATMEPLNCFVDLQSDSCLIRTGSQFQTGDRNAAARVAGLKPEQVTLETTFLGGGFGRRACPASDFVIEAVQVAKTVGKPVMVIRTREDDMRAG”, which “soluble on expression in E. coli” value is on record?
A: not soluble

Q: For “MTGDHIKVIYFNGRGRAESIRMTLVAAGVNYEDERISFQDWPKIKPTIPGGRLPAVKITDNHGHVKWMVESLAIARYMAKKHHMMGGTEEEYYNVEKLIGQAEDLEHEYYKTLMKPEEEKQKIIKEILNGKVPVLLDIICESLKASTGKLAVGDKVTLADLVLIAVIDHVTDLDKEFLTGKYPEIHKHRENLLASSPRLAKYLSDRAATPF”, which “soluble on expression in E. coli” value is on record?
A: soluble

Q: For “MGSDKIHHHHHHMTQTQPKFLTIYNTLYKEIQIGKYPSGHALPTEKELCARFDVSRMTLRQAIKLLAEDGIVESTRGKGHFVIPQTNAQHASSMDQFKHPLDQILLARVSMSSINYRVDLESEYTNHLFANHPSAVIAMERYYQKKDNHSKQADAFCFTFIPLNVIDTFKVNTQNEDDMKTFVEQTIYSNAYQSDLKMSITKAPRFKNHSHVFDGDTHCWLIIETLYAQTPYPIMINKWYIPQEISELTLTRIRQSDY”, which “soluble on expression in E. coli” value is on record?
A: not soluble

Q: For “MLRKEEILERTSNGLSVFKHYVPGNWRIGRNFLNPLYEDNKASCNIYFDRRSGIYKMKDFGNDNYSGDCFFFVGQLKGLDCNNSMDFVEILETIDRDLGLGLATGNPIPVTRNSCRVVDNILEETPEKESKPYQFREQKFPLAELMYWQQYGITPEILELYKVCSLRDFQSVTADGTQFTYTSSVTEPMYGYKSKRYIKLYRPFSKTRFLYGGNFGDNYCFGLEQLPAKGDTLFITGGEKDVMSLAAHGFHAICFNSETVTVPPTLIYKLTFRFKHIILLYDTDKTGKESARKQEKQLEEFSVKRLLLPLSGTKEEKDISDYFKAGNTREDFLKLFIEFLDNLYSDTLIMLKSCEIDFNNPPAKAQVIISAGDVPLGTQGNLFGITGGEGTGKSNYIAAMLAGCICQPDKEVDTLGIQITANSKRKAVLLYDTEQSEVQLFKNVSNLLARAKQPDKPEELKAFCLTGMSRKERLHAIVQSMDKFYYQYGGIQLVVIDGIADLVKSANDEAESVAVIDELYRLAGIYNTCILCVLHFVPNGLKLRGHLGSELQRKAATILSIEKDEEPTQSVVKALKVRDGSPLDVPLMLFAWDKAAGMHLYKGEKPREEKEKRKEKELVCVARDIFGRQTHITYIDLCEQVAAGFGRERTYCQKLCSFHAGTGYYH”, which “soluble on expression in E. coli” value is on record?
A: not soluble

Q: For “MSLKYDVCIIGAGPAGYAAAMRALDLNKSVILIEKDKIGGAGLYNGAISSKTFWELAKDIQTARKRLAQYSPDQHFSVTYQQVLRQVREGIANRRFHLEGQIESLAKQQTSRFRYIKGSAKLVSHNTVEVSTGTEEEIIEAENVVIATGSKPRKLPNIPIDEKIIVTSDGVENFENFPKSLVILGAGVIGCEWATIFSNFGYTSVNIIDKAERILPFEDDDVTDVVEANMKKQGITVHKKSNLLSMRIVDGEVEYILEYTDGRKEMHRVEKVLVSVGRIPNTQNLGLERVGVNILANGQIENTDGQTNIPNIYVAGDISSDVALVNVAELEGRHVIEKMFGLSDSVITYNNVSTIMFVQPEVAGVGMNEKKALQNKMSYKVVKIRYDMIPRAIAMRNNDGFFKILVTNDADMKIIGMRAVGVHASSAIQAVALLISMDKGVEELADMIHPHPSIIEGIQECIRMLLGKSVLKPEFFKGMLSCKSCDENGCVNDIIYLREGHHHHHH”, which “soluble on expression in E. coli” value is on record?
A: soluble

Q: With “MENPINELAAAVHDGLGLTYPPIIDMGPQLTREQLLASMSATMRRHKGGPVWLFAYGSLIWRPECTAVESQRGRVHGYHRGLYLWSHEHRGTPEVPGLVFGLDRGGSCTGFAYRLPDDCLEKSLLALWEREMPYPSYRPHWLNCRLEDGRKVQALGFVLERHLPSYAGNLPDSVLSQVLASASGRYGTTRDYVEQTAKALRSHAMPDLNLEARLKRCKSETAAAALEHHHHHH” as the sequence, how does the “soluble on expression in E. coli” value read?
A: not soluble

Q: With “MCGRIAQKSAPEDYVEILWPNARLIFDDVAGPRYNIPPGTRPLTMHRLVDQAEALARLPWGYKPHGSSFFMINAKLETIERHGWPWKLMIGTGRILVPADGWYEWKALDSGPKPAKQPYYIHGDAPLLFAGLSAWRRGAELDEAHGFAIVTNDALGGMVDVHDRRPVALPPELAREWVDPATPVARAKEILRAGLPETAFSWYPVRQEVGSSKYQLPDAVDPLLEHHHHHH” as the sequence, how does the “soluble on expression in E. coli” value read?
A: soluble

Q: For “MNEFEDLLNSVSEVNPGDVVTAEVLTVDNGQANVVIDGTGVEGVLTLRELTNDRDADINDFVKAGDTVEVLVLRQVVGKDTDTVTFLVSKKRLEARKAWDKLVGREGEVVTVKGTRAVKGGLSVEFEGLRGFIPASMIDTRFVRNTEKFVGQEFDAKIKEVDAAENRFILSRREVVEESAAAARKEVFSNIEVGSVVTGKVARLTSFGAFIDLGGVDGLVHVTELSHERNVSPKSVVTVGEEVEVKVLSIDEEAGRVSLSLKATTPGPWDGVEQKLAAGDVIEGKVKRLTDFGAFVEVLPGIDGLVHISQISHKRVENPKDVLSAGQEVTVKVLEVNSDAERVSLSMKALEERPAQAEGEKEEKRQSRPRRPRRQEKRDYELPETQTGFSMADLFGDIELLEHHHHHH”, which “soluble on expression in E. coli” value is on record?
A: soluble

Q: Which “soluble on expression in E. coli” value does the source give for “MGKNEILWGIAPIGWRNDDMPEIGAGNTLQHLLSDIVVARFQGTEVGGFFPEPAILNKELKLRNLRIAGKWFSSFILRDGLGEAAKTFTLHCEYLQQVNADVAVVSEQTYSVQSLEKNVFTEKPHFTDDEWERLCEGLNHLGEIAAQHGLKLVYHHHLGTGVQTAEEVDRLMAGTDPAHVHLLYDTGHAYISDGDYMGMLEKHIGRIKHVHFKDARLNVMEQCRLEGQSFRQSFLKGMFTVPGDGCIDFREVYQLLLKHSYSGWIVIEAEQDPDVANPLEYALIARNYIDQQLLDLALEHHHHHH” here?
A: not soluble
